Laboratory results as given in publication doi:10.1101/2021.07.23.453482 (bioRxiv, 2021).

Target: the molecule itself
Assay: SEC-MALS

B1: BT3796^4S-Gal/GalNAc (enzyme)
chain: QTQKSAQTQRVDKRPNIILFMVDDMGWQDTSLPFWTQKTDYNKLYETPNMERLAKQGMMFTQAYASSISSPTRCSLITGTNAARHRVTNWTLQKNTKTDRKDKVLDVPDWNYNGVSQVPGTNNTFVGTSFVQLLKDSGYHTIHCGKAHFGAIDTPGEDPHHWGFEVNIAGHAAGGLASYLGEENYGHNKDGKPISLMAVPGLEKYWGTETFVTEALTLEAIKALNKAKKYNQPFYLYMSQYAIHVPLDKDKRFYDKYKKKGMTDHEAAYATLIEGMDKSLGDLMDWLEKSGEADNTIIIFMSDNGGLAAESYWRDGKLHTQNHPLNSGKGSTYEGGIREPMIVSWPGVVAPGSKCNDYLLIEDFYPTILEMAGIKKYKTVQPIDGISFMPLLKQTRNPSKGRSLFWNMPNNWGNDGPGINFNCAVRKGDWKLIYYYGTGKKELFNIPDDIGESNDLSAQHPDIVKRLSKELGTYLRKVDAQRPTVKATGKPCPWPDEIK
- stoichiometry N: 2

B2: BT3057^4S-Gal/GalNAc (enzyme, Bacteroides thetaiotaomicron, UniProt Q8A397 1-508, looked up)
chain: QERPNIIVFLVDDMGLMDTSVPFIADESGQPVRHPLNDWYHTPNMERLAKQGICFSTFYAQSVSSPSRASIMTGQNATRHGVTNWINAESNNRNPFGPPQWNWKGLRKDMPTMPRVLQQAGYKTIHVGKAHFGCMGSEGENPLNIGFDVNIAGSGIGHPGSYYGEWGYGHIKGQKIRAVPDLEKYHGTDTFLSEALTIEANREITKAVEEKRPFYLNMAHYAVHSPFQADKRFLSRYTDPDKNEQARAFATLIEGMDKSLGDIMDQLEKLGIAENTLILFLGDNGGDAPLGDERGYGSSAPLRGKKGTEFEGGMRVPFIAAWAKPEKKSKVQKNLPIEVGSMQTQLGTIMDIYPTVLSVAGCEVPQNYVIDGFDLKKQLSGKVDKKRPESFLMHFPHAHRGSYFTTYRMGDWKLIYYYLPETPKQPKALLYNLKDDPEERNELSAAHPDQCREMIREMSARLEKEGALYPVDKQGNELKPFVYF
- stoichiometry N: 2
